Results on one protein are retold here after patent US7176293.

The target of data set [1] is E2 ubiquitin-conjugating enzyme UbchD2, P62837.
For data set [2], the target named is E2 ubiquitin-conjugating enzyme Ubch8, O14933.
Sequence of E2 ubiquitin-conjugating enzyme Ubch8, O14933 (O14933 whole entry): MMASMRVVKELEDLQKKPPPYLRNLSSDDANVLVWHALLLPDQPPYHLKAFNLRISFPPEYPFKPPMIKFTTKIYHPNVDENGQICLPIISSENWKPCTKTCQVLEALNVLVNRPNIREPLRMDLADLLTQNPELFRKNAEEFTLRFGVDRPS

Sequence of E2 ubiquitin-conjugating enzyme UbchD2, P62837 (P62837 whole entry, looked up): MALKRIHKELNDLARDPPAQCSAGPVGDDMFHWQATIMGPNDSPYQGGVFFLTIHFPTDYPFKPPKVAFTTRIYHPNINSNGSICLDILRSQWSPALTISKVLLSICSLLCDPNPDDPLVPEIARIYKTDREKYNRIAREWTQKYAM

B1: GST-Chfr (glutathione S-transferase fused to the N-terminus of full-length human Chfr) (protein)
chain: MERPEEGKQSPPPQPWGRLLRLGAEEGEPHVLLRKREWTIGRRRGCDLSFPSNKLVSGDHCRIVVDEKSGQVTLEDTSTSGTVINKLKVVKKQTCPLQTGDVIYLVYRKNEPEHNVAYLYESLSEKQGMTQESFEANKENVFHGTKDTSGAGAGRGADPRVPPSSPATQVCFEEPQPSTSTSDLFPTASASSTEPSPAGRERSSSCGSGGGGISPKGSGPSVASDEVSSFASALPDRKTASFSSLEPQDQEDLEPVKKKMRGDGDLDLNGQLLVAQPRRNAQTVHEDVRAAAGKPDKMEETLTCIICQDLLHDCVSLQPCMHTFCAACYSGWMERSSLCPTCRCPVERICKNHILNNLVEAYLIQHPDKSRSEEDVQSMDARNKITQDMLQPKVRRSFSDEEGSSEDLLELSDVDSESSDISQPYVVCRQCPEYRRQAAQPPHCPAPEGEPGAPQALGDAPSTSVSLTTAVQDYVCPLQGSHALCTCCFQPMPDRRAEREQDPRVAPQQCAVCLQPFCHLYWGCTRTGCYGCLAPFCELNLGDKCLDGVLNNNSYESDILKNYLATRGLTWKNMLTESLVALQRGVFLLSDYRVTGDTVLCYCCGLRSFRELTYQYRQNIPASELPVAVTSRPDCYWGRNCRTQVKAHHAMKFNHICEQTRFKN
Consider B1, for which the entries for the “ubiquitin-protein ligase activity in vitro (ubiquitination of GST-Chfr, anti-ubiquitin immunoblot)” value in data set [1] and in data set [2] were “supported the ubiquitin-protein ligase activity of Chfr” and “did not function in this assay”, respectively.
